Paper PMC5585873

How the values were obtained:
[1] = system: CCCCCCOS(=O)(=O)O; assay: purified protein; details: 10 mM tris-HCl, pH 7.4, 25 °C, 0.16 μM enzyme
[2] = substrate: CCCCCCOS(=O)(=O)O; assay: LC-MS of substrate depletion, hyperbolic fit; type: biochemical, Saccharomyces cerevisiae; details: 10 mM tris-HCl, pH 7.4, 25 °C, 1.0 μM enzyme

## SdsA1 (Pseudomonas aeruginosa PAO1)
[1]
  Km: 110 ± 17 µM
  kcat: 1.07 ± 0.45 s⁻¹

B1: Bds1 (Saccharomyces cerevisiae S288C) (protein)
chain: MIGAFKRNRGSSQSFAKECQPSTLKANLEVAKELPFSDRRDFEDATQGYIGSLSDEQIIGPDGGVVWCMKSYGFLEPETPANTVNPSLWRQAQLNAIHGLFKITDNVYQVRGLDISNMTIIEGNTSLIIIDTLFTTETAQESLKLYYRHRPQKPVRTVIYTHSHSDHYGGVKGIVKEADVKSGEVQIIAPVGFMESVVAENILAGNAMHRRSQYQFGMLLSPSVKGHVDCGIGKAASHGTVTLIAPTIIIEEPVEERTIDGVDFVFQLAPGSEAPSEMLIYMPQQRVLNMAEDVTHHMHNLYALRGVEVRDGNQWAKYIDAARVAFGSKTDVLIAQHHWPTTGQMRINELLKKQRDMYKFIHDQTLRLLNQGYTSRDIAETLRMPSSLEQEWSTRGYYGTLSHNVKAVYQKYLGWYDANPANLNPLPPVAYAKKAVEYMGGADAVLARAYKDFQKGEFRWVASVVNQLVFADPNNHQARELCADALEQLGYQAEASTWRNAYLVGAMELRQGVPKRRSTGKRNNIAVLNNEMFFDFLAVRLNATKAEGKIIVSNWCFINSNERFVITLENCALTYIQGWQTDADATITLKRTTFEALLANEITMVDFLRSKEVEIEGNRLRIEELLKLFDDFDQSFPVVEPMGGST
[2]
  Km: 300 ± 115 µM
  kcat: 0.0067 ± 0.0017 s⁻¹
